Measured values: article PMC12049449, “EXO1 promotes the meiotic MLH1-MLH3 endonuclease through conserved interactions with MLH1, MSH4 and DNA” (Nature Communications, 2025)

Columns and labels:
[1] = molecular target: EXO1-FLAG, full length, as printed for Fig. 3h and Fig. 6d (UniProt Q9UQ84); experiment: pull-down (anti-FLAG immobilised EXO1-FLAG, Western blot quantification); conditions: n = 3 independent experiments, parent: est. 1.0, read off a plot
Human MutLγ (MLH1-MLH3) = molecular target: T1, Human MutLγ (MLH1-MLH3) (human, UniProt P40692 1-756; Q9UHC1 1-1453); experiment: pull-down; MutLγ (bait, 1 μg) held by anti-MLH1 antibody on protein G magnetic beads; EXO1-FLAG variants (prey, 1 μg) added; 25 mM Tris-HCl pH 7.5, 3 mM EDTA, 1 mM DTT, 20 μg/ml BSA, 50 mM NaCl, 4 °C, 1 h; washes with 100 mM NaCl, 0.05% Triton X-100; Western blot; conditions: both partners purified
T1 construct: MLH1, human, from pFB-FLAG-hMLH1co; MLH3, human, from pFB-His-MBP-hMLH3co; The methods say that the MBP tag was cleaved with PreScission protease; also called FLAG-MLH1 and MBP-MLH3; FLAG-MLH1-MBP-MLH3; source: Sf9, purified (amylose resin, M2 anti-FLAG resin); not shown: FLAG, N-terminal, kept; MBP, N-terminal, kept

[2] = molecular target: T2, EXO1-FLAG, full length, for Fig. 3h and Fig. 6d, Q9UQ84; experiment: pull-down (anti-FLAG immobilised EXO1-FLAG, Western blot quantification); conditions: chain shown with the change; n = 3 independent experiments; p < 0.0001 vs WT; parent: est. 1.0; read off a plot
T2 chain: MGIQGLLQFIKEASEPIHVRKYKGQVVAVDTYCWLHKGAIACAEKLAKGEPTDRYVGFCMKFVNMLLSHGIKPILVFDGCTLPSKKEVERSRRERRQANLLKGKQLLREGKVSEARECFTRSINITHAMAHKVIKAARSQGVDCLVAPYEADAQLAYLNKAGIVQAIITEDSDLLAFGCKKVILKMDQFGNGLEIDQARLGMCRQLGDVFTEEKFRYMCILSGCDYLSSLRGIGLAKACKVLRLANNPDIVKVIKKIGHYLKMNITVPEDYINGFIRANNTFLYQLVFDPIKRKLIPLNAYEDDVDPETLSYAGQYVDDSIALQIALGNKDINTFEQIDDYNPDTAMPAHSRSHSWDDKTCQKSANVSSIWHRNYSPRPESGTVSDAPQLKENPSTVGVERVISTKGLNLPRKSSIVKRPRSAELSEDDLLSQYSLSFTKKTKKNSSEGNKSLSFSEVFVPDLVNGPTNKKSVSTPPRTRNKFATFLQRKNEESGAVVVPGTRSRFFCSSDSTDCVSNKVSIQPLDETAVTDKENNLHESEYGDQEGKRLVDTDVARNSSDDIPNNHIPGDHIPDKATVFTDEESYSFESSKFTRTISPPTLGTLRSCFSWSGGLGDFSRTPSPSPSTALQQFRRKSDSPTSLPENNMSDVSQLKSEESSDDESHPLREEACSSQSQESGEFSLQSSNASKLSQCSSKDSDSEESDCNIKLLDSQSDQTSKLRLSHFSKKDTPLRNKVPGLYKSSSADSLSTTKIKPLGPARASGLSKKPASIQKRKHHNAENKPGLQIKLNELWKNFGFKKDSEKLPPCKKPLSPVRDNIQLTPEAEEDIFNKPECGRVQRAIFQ

Human MutSγ (MSH4-MSH5) (from UniProt O15457;O43196) MSH4:F225E; MSH4:F288E
ratio to parent ([1]; p = 0.005 vs WT): 0.2 arb. units

Human MutSγ (MSH4-MSH5) (from UniProt O15457;O43196) MSH4:F225E
ratio to parent ([1]; p = 0.22 vs WT): 0.66 arb. units

Human MutSγ (MSH4-MSH5) (from UniProt O15457;O43196) MSH4:F288E
ratio to parent ([1]; p = 0.19 vs WT): 0.73 arb. units

B1: Nuclease-deficient human EXO1 (D173A)-FLAG, full length (enzyme, UniProt Q9UQ84 1-846, looked up)
chain: MGIQGLLQFIKEASEPIHVRKYKGQVVAVDTYCWLHKGAIACAEKLAKGEPTDRYVGFCMKFVNMLLSHGIKPILVFDGCTLPSKKEVERSRRERRQANLLKGKQLLREGKVSEARECFTRSINITHAMAHKVIKAARSQGVDCLVAPYEADAQLAYLNKAGIVQAIITEDSALLAFGCKKVILKMDQFGNGLEIDQARLGMCRQLGDVFTEEKFRYMCILSGCDYLSSLRGIGLAKACKVLRLANNPDIVKVIKKIGHYLKMNITVPEDYINGFIRANNTFLYQLVFDPIKRKLIPLNAYEDDVDPETLSYAGQYVDDSIALQIALGNKDINTFEQIDDYNPDTAMPAHSRSHSWDDKTCQKSANVSSIWHRNYSPRPESGTVSDAPQLKENPSTVGVERVISTKGLNLPRKSSIVKRPRSAELSEDDLLSQYSLSFTKKTKKNSSEGNKSLSFSEVFVPDLVNGPTNKKSVSTPPRTRNKFATFLQRKNEESGAVVVPGTRSRFFCSSDSTDCVSNKVSIQPLDETAVTDKENNLHESEYGDQEGKRLVDTDVARNSSDDIPNNHIPGDHIPDKATVFTDEESYSFESSKFTRTISPPTLGTLRSCFSWSGGLGDFSRTPSPSPSTALQQFRRKSDSPTSLPENNMSDVSQLKSEESSDDESHPLREEACSSQSQESGEFSLQSSNASKLSQCSSKDSDSEESDCNIKLLDSQSDQTSKLRLSHFSKKDTPLRNKVPGLYKSSSADSLSTTKIKPLGPARASGLSKKPASIQKRKHHNAENKPGLQIKLNELWKNFGFKKDSEKLPPCKKPLSPVRDNIQLTPEAEEDIFNKPECGRVQRAIFQ
notes: EXO1, human, from pFB-MBP-PP-EXO1(D173A)-1xFLAG; last residue at position 846; also called nuclease-dead EXO1 (D173A); source: Sf9, purified (amylose resin, PreScission cleavage, FLAG M2 resin); not shown: MBP, N-terminal, cleaved; FLAG, C-terminal, kept
binding result (Human MutLγ (MLH1-MLH3)): binds

B2: EXO1 (D173A I403E)-FLAG (enzyme, human, UniProt Q9UQ84 1-846, looked up)
chain: MGIQGLLQFIKEASEPIHVRKYKGQVVAVDTYCWLHKGAIACAEKLAKGEPTDRYVGFCMKFVNMLLSHGIKPILVFDGCTLPSKKEVERSRRERRQANLLKGKQLLREGKVSEARECFTRSINITHAMAHKVIKAARSQGVDCLVAPYEADAQLAYLNKAGIVQAIITEDSALLAFGCKKVILKMDQFGNGLEIDQARLGMCRQLGDVFTEEKFRYMCILSGCDYLSSLRGIGLAKACKVLRLANNPDIVKVIKKIGHYLKMNITVPEDYINGFIRANNTFLYQLVFDPIKRKLIPLNAYEDDVDPETLSYAGQYVDDSIALQIALGNKDINTFEQIDDYNPDTAMPAHSRSHSWDDKTCQKSANVSSIWHRNYSPRPESGTVSDAPQLKENPSTVGVERVESTKGLNLPRKSSIVKRPRSAELSEDDLLSQYSLSFTKKTKKNSSEGNKSLSFSEVFVPDLVNGPTNKKSVSTPPRTRNKFATFLQRKNEESGAVVVPGTRSRFFCSSDSTDCVSNKVSIQPLDETAVTDKENNLHESEYGDQEGKRLVDTDVARNSSDDIPNNHIPGDHIPDKATVFTDEESYSFESSKFTRTISPPTLGTLRSCFSWSGGLGDFSRTPSPSPSTALQQFRRKSDSPTSLPENNMSDVSQLKSEESSDDESHPLREEACSSQSQESGEFSLQSSNASKLSQCSSKDSDSEESDCNIKLLDSQSDQTSKLRLSHFSKKDTPLRNKVPGLYKSSSADSLSTTKIKPLGPARASGLSKKPASIQKRKHHNAENKPGLQIKLNELWKNFGFKKDSEKLPPCKKPLSPVRDNIQLTPEAEEDIFNKPECGRVQRAIFQ
notes: EXO1, human, derivative of pFB-MBP-PP-EXO1(D173A)-1xFLAG; also called EXO1 (I403E); source: Sf9, purified (amylose resin, PreScission cleavage, FLAG M2 resin); not shown: MBP, N-terminal, cleaved; FLAG, C-terminal, kept
binding result (Human MutLγ (MLH1-MLH3)): binds

B3: EXO1 (D173A MIP)-FLAG (F506A and F507A in the MIP motif) (enzyme, human, UniProt Q9UQ84 1-846, looked up)
chain: MGIQGLLQFIKEASEPIHVRKYKGQVVAVDTYCWLHKGAIACAEKLAKGEPTDRYVGFCMKFVNMLLSHGIKPILVFDGCTLPSKKEVERSRRERRQANLLKGKQLLREGKVSEARECFTRSINITHAMAHKVIKAARSQGVDCLVAPYEADAQLAYLNKAGIVQAIITEDSALLAFGCKKVILKMDQFGNGLEIDQARLGMCRQLGDVFTEEKFRYMCILSGCDYLSSLRGIGLAKACKVLRLANNPDIVKVIKKIGHYLKMNITVPEDYINGFIRANNTFLYQLVFDPIKRKLIPLNAYEDDVDPETLSYAGQYVDDSIALQIALGNKDINTFEQIDDYNPDTAMPAHSRSHSWDDKTCQKSANVSSIWHRNYSPRPESGTVSDAPQLKENPSTVGVERVISTKGLNLPRKSSIVKRPRSAELSEDDLLSQYSLSFTKKTKKNSSEGNKSLSFSEVFVPDLVNGPTNKKSVSTPPRTRNKFATFLQRKNEESGAVVVPGTRSRAACSSDSTDCVSNKVSIQPLDETAVTDKENNLHESEYGDQEGKRLVDTDVARNSSDDIPNNHIPGDHIPDKATVFTDEESYSFESSKFTRTISPPTLGTLRSCFSWSGGLGDFSRTPSPSPSTALQQFRRKSDSPTSLPENNMSDVSQLKSEESSDDESHPLREEACSSQSQESGEFSLQSSNASKLSQCSSKDSDSEESDCNIKLLDSQSDQTSKLRLSHFSKKDTPLRNKVPGLYKSSSADSLSTTKIKPLGPARASGLSKKPASIQKRKHHNAENKPGLQIKLNELWKNFGFKKDSEKLPPCKKPLSPVRDNIQLTPEAEEDIFNKPECGRVQRAIFQ
notes: EXO1, human, derivative of pFB-MBP-PP-EXO1(D173A)-1xFLAG; also called EXO1 MIP mutants; MIP mutations; source: Sf9, purified (amylose resin, PreScission cleavage, FLAG M2 resin); not shown: MBP, N-terminal, cleaved; FLAG, C-terminal, kept
binding result (Human MutLγ (MLH1-MLH3)): binds

B4: Human MutSγ (MSH4-MSH5), O15457;O43196 MSH4:T238E; MSH4:Y244D; MSH4:F288E (protein)
chain 1: MLRPEISSTSPSAPAVSPSSGETRSPQGPRYNFGLQETPQSRPSVQVVSASTCPGTSGAAGDRSSSSSSLPCPAPNSRPAQGSYFGNKRAYAENTVASNFTFGASSSSARDTNYPQTLKTPLSTGNPQRSGYKSWTPQVGYSASSSSAISAHSPSVIVAVVEGRGLARGEIGMASIDLKNPQIILSQFADNTTYAKVITKLKILSPLEIIMSNTACAVGNSTKLFTLITENFKNVNFETIQRKDFNETKGLEYIEQLCIAEFSTVLMEVQSKYYCLAAVAALLKYVEEIQNSVYAPKSLKICFQGSEQTAMIDSSSAQNLELLINNQDYRNNHTLFGVLNYTKTPGGSRRLRSNILEPLVDIETINMRLDCVQELLQDEELFFGLQSVISRFLDTEQLLSVLVQIPKQDTVNAAESKITNLIYLKHTLELVDPLKIAMKNCNTPLLRAYYGSLEDKRFGIILEKIKTVINDDARYMKGCLNMRTQKCYAVRSNINEFLDIARRTYTEIVDDIAGMISQLGEKYSLPLRTSFSSARGFFIQMTTDCIALPSDQLPSEFIKISKVKNSYSFTSADLIKMNERCQESLREIYHMTYMIVCKLLSEIYEHIHCLYKLSDTVSMLDMLLSFAHACTLSDYVRPEFTDTLAIKQGWHPILEKISAEKPIANNTYVTEGSNFLIITGPNMSGKSTYLKQIALCQIMAQIGSYVPAEYSSFRIAKQIFTRISTDDDIETNSSTFMKEMKEIAYILHNANDKSLILIDELGRGTNTEEGIGICYAVCEYLLSLKAFTLFATHFLELCHIDALYPNVENMHFEVQHVKNTSRNKEAILYTYKLSKGLTEEKNYGLKAAEVSSLPPSIVLDAKEITTQITRQILQNQRSTPEMERQRAVYHLATRLVQTARNSQLDPDSLRIYLSNLKKKYKEDFPRTEQVPEKTEE
chain 2: MASLGANPRRTPQGPRPGAASSGFPSPAPVPGPREAEEEEVEEEEELAEIHLCVLWNSGYLGIAYYDTSDSTIHFMPDAPDHESLKLLQRVLDEINPQSVVTSAKQDENMTRFLGKLASQEHREPKRPEIIFLPSVDFGLEISKQRLLSGNYSFIPDAMTATEKILFLSSIIPFDCLLTVRALGGLLKFLGRRRIGVELEDYNVSVPILGFKKFMLTHLVNIDQDTYSVLQIFKSESHPSVYKVASGLKEGLSLFGILNRCHCKWGEKLLRLWFTRPTHDLGELSSRLDVIQFFLLPQNLDMAQMLHRLLGHIKNVPLILKRMKLSHTKVSDWQVLYKTVYSALGLRDACRSLPQSIQLFRDIAQEFSDDLHHIASLIGKVVDFEGSLAENRFTVLPNIDPEIDEKKRRLMGLPSFLTEVARKELENLDSRIPSCSVIYIPLIGFLLSIPRLPSMVEASDFEINGLDFMFLSEEKLHYRSARTKELDALLGDLHCEIRDQETLLMYQLQCQVLARAAVLTRVLDLASRLDVLLALASAARDYGYSRPRYSPQVLGVRIQNGRHPLMELCARTFVPNSTECGGDKGRVKVITGPNSSGKSIYLKQVGLITFMALVGSFVPAEEAEIGAVDAIFTRIHSCESISLGLSTFMIDLNQVAKAVNNATAQSLVLIDEFGKGTNTVDGLALLAAVLRHWLARGPTCPHIFVATNFLSLVQLQLLPQGPLVQYLTMETCEDGNDLVFFYQVCEGVAKASHASHTAAQAGLPDKLVARGKEVSDLIRSGKPIKPVKDLLKKNQMENCQTLVDKFMKLDLEDPNLDLNVFMSQEVLPAATSIL
ratio to parent [2]: 0.08 arb. units
